Laboratory results as given in patent US20140315822A1 (INSTITUT PASTEUR, published 2014).
Where two headings read alike, the source gives them in different places.

Experiments:
VIR13 (Neurovita 1) [1] = target: VIR13 (Neurovita 1) (rabies virus); assay: method not restated in the table; ITC per paragraph 50
VIR13 (Neurovita 1) [2] = target: VIR13 (Neurovita 1) (rabies virus)

| Binder | Kd (VIR13 (Neurovita 1) [1]) | Kd (VIR13 (Neurovita 1) [2]) |
| --- | --- | --- |
| PDZ domain of the human PTPN4 protein (other, domain: PDZ domain) SSPEKPTPNGGIPHDNLVLIRMKPDENGRFGFNVKGGYDQKMPVIVSRVAPGTPADLCVPRLNEGDQVVLINGRDIAEHTHDQVVLFIKASCERHSGELMLLVRPN | 560 µM | – |
| PDZ domain of the human MAST2 protein (other) MRPPIIIHRAGKKYGFTLRAIRVYMGDSDVYTVHHMVWHVEDGGPASEAGLRQGDLITHVNGEPVHGLVHTEVVELILKSGNKVAISTTPLEN | – | 1.26 µM |
